# Results: US6183967
# What was measured:
# Test in all cases: FP filter
# [1] = system: TZ05 DNA polymerase (Thermus species Z05); details: 55C
# [2] = target: Taq DNA polymerase (Thermus aquaticus) (UniProt P19821)
# [3] = target: Tth DNA polymerase (Thermus thermophilus) (UniProt P52028)
# Chain of Tth DNA polymerase (Thermus thermophilus) (P52028 whole entry): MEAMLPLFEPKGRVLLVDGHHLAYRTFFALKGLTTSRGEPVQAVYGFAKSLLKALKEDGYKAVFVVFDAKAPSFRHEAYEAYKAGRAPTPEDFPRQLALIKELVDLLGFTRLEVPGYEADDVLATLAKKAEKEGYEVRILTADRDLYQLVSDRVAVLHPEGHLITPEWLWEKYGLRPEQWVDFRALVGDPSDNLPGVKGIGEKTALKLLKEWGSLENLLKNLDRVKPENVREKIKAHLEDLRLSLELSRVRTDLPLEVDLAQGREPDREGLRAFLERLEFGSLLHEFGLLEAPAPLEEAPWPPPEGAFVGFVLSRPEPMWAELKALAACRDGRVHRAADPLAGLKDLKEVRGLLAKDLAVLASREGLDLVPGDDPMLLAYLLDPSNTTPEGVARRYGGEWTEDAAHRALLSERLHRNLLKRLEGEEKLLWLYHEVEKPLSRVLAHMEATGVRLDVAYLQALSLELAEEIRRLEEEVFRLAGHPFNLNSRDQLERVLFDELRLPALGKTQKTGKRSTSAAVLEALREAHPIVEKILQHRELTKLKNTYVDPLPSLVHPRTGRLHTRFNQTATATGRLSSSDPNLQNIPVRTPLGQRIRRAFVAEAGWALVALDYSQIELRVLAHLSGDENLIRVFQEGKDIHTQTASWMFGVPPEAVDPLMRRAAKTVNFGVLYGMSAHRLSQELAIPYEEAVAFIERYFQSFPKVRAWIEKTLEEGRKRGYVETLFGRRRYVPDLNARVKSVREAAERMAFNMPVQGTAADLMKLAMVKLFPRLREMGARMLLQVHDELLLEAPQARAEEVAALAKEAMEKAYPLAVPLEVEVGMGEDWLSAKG
# Chain of Taq DNA polymerase (Thermus aquaticus) (P19821 whole entry): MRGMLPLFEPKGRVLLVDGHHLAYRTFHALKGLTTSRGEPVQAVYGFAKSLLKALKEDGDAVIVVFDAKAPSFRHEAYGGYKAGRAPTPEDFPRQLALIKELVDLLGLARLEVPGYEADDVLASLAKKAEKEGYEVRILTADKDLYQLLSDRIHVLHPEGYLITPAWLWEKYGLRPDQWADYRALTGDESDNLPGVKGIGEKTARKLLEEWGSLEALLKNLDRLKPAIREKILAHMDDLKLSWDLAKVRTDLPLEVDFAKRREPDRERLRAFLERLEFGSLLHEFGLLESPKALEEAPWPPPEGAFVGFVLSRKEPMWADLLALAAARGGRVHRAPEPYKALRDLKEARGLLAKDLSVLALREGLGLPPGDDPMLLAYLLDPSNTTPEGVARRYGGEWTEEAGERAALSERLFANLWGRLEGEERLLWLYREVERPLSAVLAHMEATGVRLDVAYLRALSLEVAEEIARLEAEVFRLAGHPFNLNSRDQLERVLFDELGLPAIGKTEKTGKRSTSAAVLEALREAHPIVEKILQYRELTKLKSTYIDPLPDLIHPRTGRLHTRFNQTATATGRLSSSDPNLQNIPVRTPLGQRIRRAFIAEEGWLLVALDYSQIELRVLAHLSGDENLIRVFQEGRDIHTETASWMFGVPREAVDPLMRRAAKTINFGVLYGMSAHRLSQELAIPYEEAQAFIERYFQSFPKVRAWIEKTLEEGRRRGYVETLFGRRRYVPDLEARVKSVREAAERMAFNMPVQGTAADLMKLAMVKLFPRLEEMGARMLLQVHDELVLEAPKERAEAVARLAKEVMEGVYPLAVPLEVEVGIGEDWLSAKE
sequence,measurement,setting,value
TTCTCGGTTGGTCTCTGGCGGAGCACACCGGGGGGGCTGCGGGCAAGGCGGGTGTCTTGTGTATGATTCGCTTTTCCC [TZ1],Kd,[1]; IT50 52.5C,0.016 nM
TTCTCGGTTGGTCTCTGGCGGAGCACGGGAGGGTGTGGAGTGGGTGGCGCGGGCTCTTGTGTATGATTCGCTTTTCCC [TZ36],Kd,[1]; IT50 51C,0.02 nM
TTCTCGGTTGGTCTCTGGCGGAGCACGTCGGGGGGGCCCTGGGGACGGGCAGGCGTCTTGTGTATGATTCGCTTTTCCC [TZ26],Kd,"[1]; printed as >>500, IT50 41C",> 0.5 nM
TTCTCGGTTGGTCTCTGGCGGAGCACGTCGGGGGGGCGTTGGGACGGGCAGACGTCTTGTGTATGATTCGCTTTTCCC [TZ13],Kd,[1]; IT50 58.5C,0.017 nM
TTCTCGGTTGGTCTCTGGCGGAGCATACACGACGTCATTCTAGCGTTTTGACGTCTTGTGTATGATTCGCTTTTCCC [ligand 22 (TQH22) / TZ3],Kd,"[1]; as TZ3, IT50 52C",0.009 nM
TTCTCGGTTGGTCTCTGGCGGAGCGAACATACGAAGACATTCCAACGTTTTGTCTTGTGTATGATTCGCTTTTCCC [TZ69],Kd,[1]; IT50 46C,0.02 nM
TTCTCGGTTGGTCTCTGGCGGAGCGAAGCATACGAAGACATTCCAACGTTTTGTCTTGTGTATGATTCGCTTTTCCC [TZ8],Kd,[1]; IT50 52C,0.005 nM
TTCTCGGTTGGTCTCTGGCGGAGCGAAGCATACGAAGACATTCCAACGTTTTGTCTTGTGTATGATTCGCTTTTCCC [TZ54],Kd,[1]; IT50 52C,0.023 nM
TTCTCGGTTGGTCTCTGGCGGAGCGCGAGGGTGTGGCGTGGGTGGCGCGATCTTGTGTATGATTCGCTTTTCCC [TZ2],Kd,"[1]; printed as >>1000, IT50 <<35C",> 1 nM
TTCTCGGTTGGTCTCTGGCGGAGCGGATCAGACACGAGACATTGCGGACTTTTGTCTTGTGTATGATTCGCTTTTCCC [TZ9],Kd,[1]; IT50 52C,0.005 nM
TTCTCGGTTGGTCTCTGGCGGAGCNNNNNNNNNNNNNNNNNNNNNNNNNNNNNNTCTTGTGTATGATTCGCTTTTCCC [enriched Taq pool round 12],Kd,"[2]; Taq binding buffer, room temp",3.5 nM
same,Kd,"[3]; cross binding, room temp",0.2 nM
TTCTCGGTTGGTCTCTGGCGGAGCNNNNNNNNNNNNNNNNNNNNNNNNNNNNNNTCTTGTGTATGATTCGCTTTTCCC [enriched Tth pool round 10],Kd,"[2]; cross binding, saturates at about 50%",0.3 nM
same,Kd,"[3]; Tth binding buffer, room temp",5 nM
TTCTCGGTTGGTCTCTGGCGGAGCNNNNNNNNNNNNNNNNNNNNNNNNNNNNNNTCTTGTGTATGATTCGCTTTTCCC [random ssDNA pool],Kd,"[3]; 50 mM Bicine pH 8.3, 90 mM KCl, 3.5 mM Mn(OAc)2, room temp",70 nM
